Reference: a protein production outcome set (Wang et al. 2014)

Test: label from the status in PepcDB records

Sequence	protein production
MPRLPRPPGSSTLRPGAVALGRPDPGPDLNSPEGLIRAARDWLGAGDDQRARLALDRALALRPRAAEALLLRGLVDQRRGDLAAAAEWFRRAIRARKDFADAHLNLGSCLIGLGQTEEALRQFGRAVALAPGMALAHLNLAQALLDQGDLGRARSAIDRARALAPDALPILLARARILAAQEDYEAAGAAWEDCVARAPGDVLVLNDAANFLLEDNRVEDSLALYRRAVALAPTSQEVRKNLIRALMTTGALDEAEAEAVGWLGTQGEDPRFRRLLGDVLVRAGRFPEARSAYVAAWDALPEDDNIPLGLTATGKMKSGEALGDRILERWTAQGAAGVVSADIAYAAGKVLDDRQDYDGAFAAFAQANRLKAADHPFDADAHDRFVEAVSTVFTPALFERFAGLGSPSETPVLVVGLPRSGTTLVEQIIASHPQAAGAGELTHVSRFEHSLPWRVGEAGRRGYPACVAGLDGAILDRFTAHYLHELTRIGPKARRVVDKLPNNFLRLGLFALAFPKARIIHCRRDLVDTCLSLYFQSFAGGHEYRHDLVSLGRYARAYLAMMAHWRRVLPLPMLEVDYADVVADQEKASRTMLEFLGLAWDEVVLRFHKREATVATASRWQVRQPIYATSVARWRRYEQHLSPLLLSLEGKKPSKG	failed
MPRRFRQANARLTILSGGIPYLTNTMTLPDRFQQADAVPDDLQQLEARLAEAEDILLRDSPQAEATAREVLAGATAAGCQSLALRSRTVLGRSLAHQKRNEQATELLESVVAESRSAKMPELLVHAWLGLGLAHLNERRMARGLQAYLEALKICESLNAPELSLRVLTNLASAYAKLEQYDTAQPYLTEAHDTARQLGQPFDLMITSLNLACVCQLSGGTGAALTLIEEALRHAKTVASPRYLKSVLFHFSQLLLDLDRLSEALTYCEQGLNTDSGFGTATPQCELQVTHGEILYGLGRPAEARPALEAGLRAAQDLRLNDAEGRARRCYAQLLEDQDDYQGALAQVRALAQLEHDLREQLAAVNLQLEAERLRSETLAEKRRLKEEGRTQQRLAAQLRHDALTGLPNRLALHEALGQQVAADSAPFALLCLDLDHFKTVNHTLGQPAGDALLLYIGERVQAAVGEQGQTFRRGGNEFVVLLPAVRAAPDALTIAQTLLDTINEPLLLDGQALVVTASIGLALFPEDGRDSLTLQKNADLALHAAKQEGGQAQRYRNALSQAANERLELTQALRSGIGNGELVLHYQPIVEVRSGKTVAVEALVRWQHPRLGLLSPDRFIGLAEDNGLIVPLGRWVLNTALRQLAAWREHWPELRVSVNMAPRQLQQPGSCQEIRDALRAYALPPDALELEITEQTICDEEALEPFLPLIREGLRLAIDDFGTGYSSLSRLYRLPAQILKLDRSLIQDLSADNATDGPLVSALIAFAQRFGMQVTAEGIETAEQLHLLRQ	failed
MPRRKTKKREEGLSAIDLANEEMGYVLSLIERTDQSLFLTGKAGTGKSTLLRHICATTHKKFVVLAPTGLAALNVGGQTLHSFFKLPLRPIPPNDPDLSTRDRRVFDVFRYTNEHKKLIRSLDLIIIDEVSMVRADVIDAIDKLLGIYRGRQERPFGGVQMLFVGDLYQLEPVVTADDADILKRFYPNPFFFSSEALRATPPVTVELTKVYRQTEQAFVQILDRIRSGRLTEQDLQDINKCVNRHYEPPKDEPVITLATKRRHVSYINERQLEQLQGDPVTLYGTIEGDFPSSSLPTEEELTLKQDAQVIFVSNDKDRRWVNGTLGIVAGFDQESETIDVCLSTGEVVTVEPCIWDNKRFSYNEQANKVEEEVLGRFVQYPLKLAWAITVHKSQGLTFDRVIIDFSEGTFAGGQAYVALSRCRSLEGMVLRAPLAGRDVIVRREIIDFYSRANDLEIINGSLLRAEAEREYAQALRLWNARHYTEAIGAFSQALARKNELDDPLFRRLLVSKLFEMEYARRREEELRRELAEQREVMRRLAKEYVLMGNDCITEAHDAHAAIRCYDKALTLYPDYVEALVRKGKTLAGLNEITTSLSTLNQAIAIAPMDFTARFTLGQVLEKFAYYEEALDAYRQADGLNSQSRSLLKRLIALCEELDEEDEANLYRIRLRKNRDQTGHK	failed
MPRWLIQHSPNTLTPEEKSHLAQQITQAYVGFGLPAFYVQVHFIEQPAGTSFIGGEQHPNFVALTIYHLARTMTSDEQRQGFLKRIDAFLTPMFEPKGIDWEYFVTEAPRDLWKINGLAPPAAGSEEEKVWVRENRPVRF	not failed
MPRWLPRAMVLALALIAAFQLGSWAFHQLTGLLINVLIAFFLALAIEPAVSWMAGRGMRRGFATFLVFLAVLIAAAGFVTLLGSMLAGQIVKMVEEFPDYLDSVINWVNGHFHTELRRVDIQEGLLRSDWLRNYVQNSATGVLDVSAQVLGGLFQLLTVLLFSFYFAADGPRLRRGLCSVLPPARQAEVLRAWEIAVDKTGGYLYSRGLMALVSGVAHYILLEILEVPYAPALAVWVGLVSQFIPTIGTYLAGALPMLIAFTVNPWYALWVLVFVVIYQQFENYVLQPKLTSKTVDIHPAVAFGSVIAGTALLGAVGALIAIPAVATLQAFLGAYVKRYDVTDDPRVHGRRGRRSVSGTSTRLRKLWTRRPEPGLEGPERTEGPERTEGGEGTDGTRDGGSS	failed
MPSAMNERTVAELEKLLRYIAANLKQRGREILTNYPITPPQFVALQWLLEEGDLTVGELSNKMYLACSTTTDLVDRMERNGLVARVRDEHDRRVVRIRLLEKGERIIEEVIEKRQRDLANVLESFSDEEIVVFERCLRKLHQEMTKE	not failed
MPSDSLRVGVLTGGGDCPGINAALRAVTKSLTLQHDAEVLGFLDGFRGVVDRNVEPLHYRDVSGILTRGGTILGASNKADPFNYLPRGGADVSAQVMRTYRTLDLDALVAIGGDGTMSIAHRLTDLGVDIVGVPKTIDNDLVGTDRTVGFDTAVSTATDAIDRIHTTAQSHHRVMIVETMGRYSGWIALHAGVASGTDVILLPEIEYEVETVADVCRDRERSGQRFTIVAVAEGARRKEGDYVVQERGDEYTDSIRLGGISRVLADQLREHLDTSIRTTVLGHMQRGGSPTAYDRTLATTLGTRAATLVAEGTTGVMVAVQNDAFTQVPLDEIAGKTRTVPLDDPLIASGLDVGTSFGVAVSDLSEAASHSKPASPIQP	failed
MPSEKQPQSKGNKMAILKLDEHLYISPQLTKADAEQIAQLGIKTIICNRPDREEESQPDFAQIKQWLEQAGVTGFHHQPVTARDIQKHDVETFRQLIGQAEYPVLAYCRTGTRCSLLWGFRRAAEGMPVDEIIRRAQAAGVNLENFRERLDNARV	not failed
MPSFRITRKVRHSATQMYDLVADIERYPEFLPLCESLRVLRDAEGPNGTTVRVAEMGVGYKAIRERFTTRVSLDRENRKIVAEYIDGPFRHLENRWSFRDAEGGGCEVDFFITYEFKSRTLGLLMGTMFDRAFRKFTDAFEGRATAIYGVPA	failed
MPSGLEQCAPRCRALLQGESGVQIQGHYELKFEAVREAFAALFEDSQERGAALCIQVGGETVIDLWAGTADKDGAEAWHSDTIANLFSCTKTFTAVTALQLVAEGKLKLDAPVADYWPEFAAAGKAAITLRQLLCHQAGLPAVRELLPAQALYEWQTMVDALAAEQPWWTPGEGHGYAAITYGWLVGELIRRADGRGPGESIVARVARPLGLDFHVGLADEEFYRVAHIARGKGNMGDAAAQRLLQVTMREPDAMSTRAFTNPPSILTSTNKPEWRRMQQPAANGHGNARSLAGFYSGLLDGSLLEADMLEELTREHSLGMDKTLLTQTRFGLGCMLDQPQVANATFGLGARAFGHPGAGGSIGFADPEHDVAFGFVTNTLGPYVLMDPRAQKLVRVLSDCLLEHHHHHH	failed
MPSIIDETVFGEPSRRLAVVYLCGALLLAGQQGYYVIIEGATPFYAGLLLSAGMALSGIAESLPKPRRRAAGVLRLTALVVLVSLLVILFVTPDLLTN	failed
MPSIISDNPKNWSEEIKNYLCRSSPERYEKMATNNAIEPYISKAISWGYAEWKNRKTLLDDIETEMLRLATLPDLSDFNDNEIYSSKKNYLSKEILENYLIKASPENFNTVFRQPGWKSHVNFLIEKGNRELERQIINGNGVENSVDTVCAELAKLMNDFENSFFDEIYGNSTPRYLLPNLFEKAIAEYKLLATIKERTRFIEAFIEIVMFDWQFSGTLDSDLFKNAYSKEVLYYYGIGARLFVLGEFKEAQEYFKKIINIEPKPIDYLMLSKTYRALNEKVETFNTIKDGLTHFPNDFLLTLALSGTLYWMGETKLANETLEPVKKDFNTMYKSEIEGAKKLAVEISEAIKCDKIYRDQKNDIYDDKYTKKAWYQYWYHYNCFRPTQHPEAYMIDYIPRYLTSIAKDATITLKGVLDFGTLCAEPLYRFAKNNPEIQCVGIDRQDLVKELNDKAYSLNNLRFEAGDIFEYLEHFALLVPNHRMLFHCRTAVLCYPNFLLKLYKKCAELGIEYICLMESNSLSRDTLTFYNYGEMPNISIARRGSLINHDYFLLLEQSGYEIVKKDFHLAPHLLEDYAALIGSNTTLVAQLKLLTQSQ	failed
MPSLFSLYRKIFFGRKPGWDQQPLPYIKVTAPNVRVSEAKISQYAQVCGFDFDGKLLPPTYLYVMAFRLHAVIFTHDGITFPLLGMIHLKNRIQVYRPAAVDEVFALECALTTSRETDSGLEFEFVSKAFVGEELVWESLSTYLYRIETAGRRVRPPKALDMAWDSPQSWELGEDLGRRYAKASGDYNLIHLHPMLSKRFGFDRVLAHGMWSKARCLAELMPEIGERPFVVDVAFKLPLLMPAEVGFGYEKTEDKWVFELRDSKGRRPHLSGEVQL	failed
MPSPVEADAKVTMRLRYTKTGAMRYLSHLEMIGLFTRAVGRARLPIRFSQGFHPHPKFSFATALSVGVESWAEYLDMELIPSLTPGEVRDRLNAALPEGMRIVEAVVIPPGTPSLSVLMDKVRYRIILLEEAARDLAARAEAFLARDSFPLRRAKKGRIQEYDLEHHHHHH	failed
MPSQDYLRVLNPSLSGPTPIAFIILALISAGLLIIIWRNRDLISTDNLRGKIIFIVISAALIFTFGRISFALSEVLIFLWALSILWIRGNTDNIEMNLAMAAWVLAYLYMHSFHPVKADRYIITVLPALAYAISLSLNNLSALMRSRRASTVLSIAVTLLMVSSAIHYTAGWPQEYGIVKGERSGAWLMNHDPSYRDRVIAADRGPAFTWYLGDYVFTRIIHPQRRELSLKYFYEVNPDYYIFWTGKTELPEGYRVIYSRDGVPLPGRFSRYAGILPLRYRIQWMLR	failed
MPSRRRFVLALAAALPAAGLLSACGFHLRGNNDFAFKRLYINLPQNSQMRAQLRRLIDNGSDTVVVSDKQDADAFLDVLSENRVKTISSLTPQGVVREYRITYRFSFQLRDAHDNLLIPPSEITLFRDLSYNETQVLAKDYEEAALYRDMQGDIVNQLVRRLASVRLPSLEHHHHHH	failed
MPTALGYVSIGLACGIIGAPYVTPVEMGLMSLFVYAGSAQFAMLALIVVQAPVAAIAMTVFLINLRLFLLSLHASTYFRHTSLWYNIGMSSILTDETYGVLMGELAHTDKVNPMWMHGNNLNSYVAWFVGTVVGTALGGLLPNPEIFGLDFALVGMFIGIFASQFQIMQRRIPVRNLLIILAVVAVSFFLLLTVMSQSLAVLFATLLGCSMGVVLDGQ	failed
MPTFLLVNDDGYFSPGINALREALKSLGRVVVVAPDRNLSGVGHSLTFTEPLKMRKIDTDFYTVIDGTPADCVHLGYRVILEEKKPDLVLSGINEGPNLGEDITYSGTVSGAMEGRILGIPSIAFSAFGRENIMFEEIAKVCVDIVKKVLNEGIPEDTYLNVNIPNLRYEEIKGIKVTRQGKRAYKERVFKYIDPYGKPFYWIAAEEFGWHAEEGTDYWAVLNGYVSVTPLHLDLTNYKVMKSIKYLEDSP	not failed
MPTIRINKLTDPVVFLHILFFLIIASSSLTYWKMSDYAVNQSWDAYFYKYSDYLDLVPTWEKILKDAFSLVLLLASIYFPRRKILDFSPNINLQRYYLSFILLFFLSLSNLFASRDVTNLTLFTIVAVIRPFLITASLLFFCHKHLNFFYFRIILECVNIIGIIQVYHSFLQRNSAIINNGLDWLHSGSARSVGTFADPNTLGRFLALLIMVNLFMLPPNIIRFFLIISYGIALFFTGSRASLLIIGIFILLFVAIKLSRQSIASTRAKNLTFAFLLTVPLLQFLLLRINLISNRADDTASPLQDGRYHILFNLINRLNPYEFIFGNYLGYGSNALILTGYDGSNFLSDSTPASLIGQFGITGLLLFILIVINLFKQTPRHININNSQDYLVLTGDLLQSRNALSFYLIISCFTTIIFESYAVIPILLGLIFYDNLDLKNIKF	failed
